Legend:
[1] = biological target: T1, USP7 Ubl45 (last two Ubl domains with the activating C-terminal tail) (UniProt Q93009 890-1102); assay: SPR; GST-USP7CD captured by anti-GST antibody on CM5 chip, Ubl45 or Ubl45ΔC flowed over; Biacore T200, 25 °C; 20 mM HEPES pH 7.5, 100 mM NaCl, 1 mM DTT, 1 mM EDTA, 0.05% Tween-20, 1 mg/mL BSA, 1 mg/mL dextran; equilibrium fit 1:1, extrapolated; conditions: both partners purified
T1 construct: USP7 Ubl domains 4 and 5 with the C-terminal tail, residues 890-1102 (25 kDa); source: E. coli BL21, purified (Glutathione Sepharose, 3C cleavage, anion exchange, gel filtration); 15N-labelled in M9 minimal medium for NMR
T1 sequence (Q93009 890-1102): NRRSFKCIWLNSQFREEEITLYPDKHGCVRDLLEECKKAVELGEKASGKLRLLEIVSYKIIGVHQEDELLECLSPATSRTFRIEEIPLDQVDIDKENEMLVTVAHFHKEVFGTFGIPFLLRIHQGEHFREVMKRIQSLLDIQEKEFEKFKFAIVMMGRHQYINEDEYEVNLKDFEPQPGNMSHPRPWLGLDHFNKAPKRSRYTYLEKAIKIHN

[2] = biological target: T2, Ubl45^ΔC (tailless Ubl45) (UniProt Q93009 890-1082); assay: as above; conditions: both partners purified
T2 construct: USP7 Ubl45 without the C-terminal tail: stop codon introduced at residue 1083; start 890 as told for Ubl45; also called tailless construct; source: E. coli BL21, purified (Glutathione Sepharose, 3C cleavage, anion exchange, gel filtration)
T2 sequence (Q93009 890-1082, stated change not applied): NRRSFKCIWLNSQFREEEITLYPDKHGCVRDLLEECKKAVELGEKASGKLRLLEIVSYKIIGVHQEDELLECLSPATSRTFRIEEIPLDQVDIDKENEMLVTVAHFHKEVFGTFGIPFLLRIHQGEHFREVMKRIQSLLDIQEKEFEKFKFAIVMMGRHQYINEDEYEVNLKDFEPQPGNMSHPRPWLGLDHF

Kd [1]: ~280 µM
Kd [2]: 420 µM
B1: GST-USP7CD (domain or fragment)
chain: KKHTGYVGLKNQGATCYMNSLLQTLFFTNQLRKAVYMMPTEGDDSSKSVPLALQRVFYELQHSDKPVGTKKLTKSFGWETLDSFMQHDVQELCRVLLDNVENKMKGTCVEGTIPKLFRGKMVSYIQCKEVDYRSDRREDYYDIQLSIKGKKNIFESFVDYVAVEQLDGDNKYDAGEHGLQEAEKGVKFLTLPPVLHLQLMRFMYDPQTDQNIKINDRFEFPEQLPLDEFLQKTDPKDPANYILHAVLVHSGDNHGGHYVVYLNPKGDGKWCKFDDDVVSRCTKEEAIEHNYGGHDDDLSVRHCTNAYMLVYIRESKLSEVLQAVTDHDIPQQLVERLQEEKRIEAQKRKERQE
modifications: GST tag (used for chip immobilisation) left out; limits 208-560 are the usual USP7 CD construct limits, not printed in the text (consistent with the stated 42 kDa)

— article PMC6335408 (Nature Communications, 2019)
